Several values for one entry are separate records, joined by “and”; a condition that tells them apart may be missing. Identical values can stand only once.

The record followed here is publication PMC6296668.

Assay [1] concerns the target CAP256 SU gp140-FL-IP (HIV-1 subtype C (CAP256 SU)). The experiment in a line: native gel or EMSA; NativePAGE Novex 3-12% Bis-Tris gels (BN-PAGE) of lectin-purified protein, Coomassie stain or anti-gp160 western blot; oligomer judged by molecular weight against NativeMark standard.
For assay [2], the target named is CAP256 gp140-FL-IP-His (HIV-1 subtype C (CAP256 SU)). The description is as above.

The term stoichiometry N denotes a count of units in the complex or per binding partner. The substance “CAP256 SU gp140-FL-IP (domain or fragment)” returned a stoichiometry N in assay [1] of 3.
Turning to “CAP256 gp140-FL-IP-His (domain or fragment)”, the stoichiometry N in assay [2] is 3 and 2.
